In paper PMC3942315, “Structural Insights Into DNA Repair by RNase T—An Exonuclease Processing 3′ End of Structured DNA in Repair Pathways” (PLoS Biology, 2014):

Key:
RNase T [1] = biological target: T1, RNase T (Escherichia coli (JM109 or K-12), UniProt P30014 1-215); assay: EMSA; 30 mM EDTA, 10 mM EGTA; EMSA: 20 nM DNA, 0/5/50 uM protein, 100 mM NaCl, 30 mM EDTA, 10 mM EGTA, 50 mM Tris-HCl pH 7.0, 20 min, room temperature; details: protein: recombinant, tags: N-terminal His (pET-28a), chain copies: 2, label: 5'-32P, hairpin
T1 sequence: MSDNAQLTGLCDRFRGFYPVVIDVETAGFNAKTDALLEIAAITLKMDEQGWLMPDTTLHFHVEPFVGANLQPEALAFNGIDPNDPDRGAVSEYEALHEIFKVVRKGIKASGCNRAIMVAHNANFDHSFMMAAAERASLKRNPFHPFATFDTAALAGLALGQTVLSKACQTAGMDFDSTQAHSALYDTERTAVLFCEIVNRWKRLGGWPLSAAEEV

[2] = biological target: the molecule itself; assay: dynamic light scattering; purified recombinant proteins in solution; conditions not given
RNase T [3] = biological target: T1, RNase T; assay: X-ray crystallography; 2 Mg2+ in active site; one DNA per protomer; 1.9 A; EMSA: 20 nM DNA, 0/5/50 uM protein, 100 mM NaCl, 30 mM EDTA, 10 mM EGTA, 50 mM Tris-HCl pH 7.0, 20 min, room temperature; details: protein: recombinant; tags: N-terminal His (pET-28a); chain copies: 2; Y structure (5' and 3' unpaired tails)

## GGCCCTCTTTAGGGCCTTAA (structured_DNA) [Stem-loop duplex DNA, 4-nt 3' overhang]
RNase T [1]; 3' overhang 4 nt
  binding result: binds

B1: RNase T (enzyme, E. coli, UniProt P30014 1-215, looked up)
chain: MSDNAQLTGLCDRFRGFYPVVIDVETAGFNAKTDALLEIAAITLKMDEQGWLMPDTTLHFHVEPFVGANLQPEALAFNGIDPNDPDRGAVSEYEALHEIFKVVRKGIKASGCNRAIMVAHNANFDHSFMMAAAERASLKRNPFHPFATFDTAALAGLALGQTVLSKACQTAGMDFDSTQAHSALYDTERTAVLFCEIVNRWKRLGGWPLSAAEEV
notes: RNase T (rnt gene) of E. coli, full-length gene amplified from genomic DNA of JM109 or K-12 strains, cloned into NdeI/XhoI sites of pET-28a; Wild-type RNase T was used for crystallisation; also called rnt; DnaQ-like exonuclease RNase T; source: E. coli BL21-CodonPlus(DE3)-RIPL, purified (HiTrap TALON, HiTrap Heparin, Superdex 75)
[2]
  stoichiometry N: 2

## TTGGCCCTCTTTAGGGCCCC (structured_DNA) [Y-structured DNA, 3'-CC (crystal)]
RNase T [3]
  binding result: binds

## GGCCCTCTTTAGGGCCAAGGGTTTAA (structured_DNA) [Stem-loop duplex DNA, 10-nt 3' overhang]
RNase T [1]; 3' overhang 10 nt
  binding result: binds

## GGCCCTCTTTAGGGCCTTATAA (structured_DNA) [Stem-loop duplex DNA, 6-nt 3' overhang]
RNase T [1]; 3' overhang 6 nt
  binding result: binds
